According to patent US7658917 (PRAECIS PHARMACEUTICALS, dated 2010):
Ends that are not written are not given here. * marks the point of attachment. Cholyl = C[C@H](CCC(=O)*)[C@H]1CC[C@H]2[C@@H]3[C@H](O)C[C@@H]4C[C@H](O)CC[C@]4(C)[C@H]3C[C@H](O)[C@]12C; iminobiotinyl = N=C1N[C@H]2[C@H](CS[C@H]2CCCCC(=O)*)N1

B1: cholyl-Aβ15-20 (peptide)
peptide: Cholyl-QKLVFF-OH
SMILES: CC(C)C[C@H](NC(=O)[C@H](CCCCN)NC(=O)[C@H](CCC(N)=O)NC(=O)CC[C@@H](C)[C@H]1CC[C@H]2[C@@H]3[C@H](O)C[C@@H]4C[C@H](O)CC[C@]4(C)[C@H]3C[C@H](O)[C@]12C)C(=O)N[C@H](C(=O)N[C@@H](Cc1ccccc1)C(=O)N[C@@H](Cc1ccccc1)C(=O)O)C(C)C
B2: cholyl-Aβ6-10-amide (peptide)
peptide: Cholyl-HDSGY-NH2
SMILES: C[C@H](CCC(=O)N[C@@H](Cc1c[nH]cn1)C(=O)N[C@@H](CC(=O)O)C(=O)N[C@@H](CO)C(=O)NCC(=O)N[C@@H](Cc1ccc(O)cc1)C(N)=O)[C@H]1CC[C@H]2[C@@H]3[C@H](O)C[C@@H]4C[C@H](O)CC[C@]4(C)[C@H]3C[C@H](O)[C@]12C
B3: cholyl-Aβ6-14-amide (peptide)
peptide: Cholyl-HDSGYEVHH-NH2
SMILES: CC(C)[C@H](NC(=O)[C@H](CCC(=O)O)NC(=O)[C@H](Cc1ccc(O)cc1)NC(=O)CNC(=O)[C@H](CO)NC(=O)[C@H](CC(=O)O)NC(=O)[C@H](Cc1c[nH]cn1)NC(=O)CC[C@@H](C)[C@H]1CC[C@H]2[C@@H]3[C@H](O)C[C@@H]4C[C@H](O)CC[C@]4(C)[C@H]3C[C@H](O)[C@]12C)C(=O)N[C@@H](Cc1c[nH]cn1)C(=O)N[C@@H](Cc1c[nH]cn1)C(N)=O
B4: cholyl-Aβ14-20 (peptide)
peptide: Cholyl-HQKLVFF-OH
SMILES: CC(C)C[C@H](NC(=O)[C@H](CCCCN)NC(=O)[C@H](CCC(N)=O)NC(=O)[C@H](Cc1c[nH]cn1)NC(=O)CC[C@@H](C)[C@H]1CC[C@H]2[C@@H]3[C@H](O)C[C@@H]4C[C@H](O)CC[C@]4(C)[C@H]3C[C@H](O)[C@]12C)C(=O)N[C@H](C(=O)N[C@@H](Cc1ccccc1)C(=O)N[C@@H](Cc1ccccc1)C(=O)O)C(C)C
B5: cholyl-Aβ6-19-amide (PPI-321 as printed in Table III) (peptide)
peptide: Cholyl-HDSGYEVHHQKLVF-NH2
SMILES: CC(C)C[C@H](NC(=O)[C@H](CCCCN)NC(=O)[C@H](CCC(N)=O)NC(=O)[C@H](Cc1c[nH]cn1)NC(=O)[C@H](Cc1c[nH]cn1)NC(=O)[C@@H](NC(=O)[C@H](CCC(=O)O)NC(=O)[C@H](Cc1ccc(O)cc1)NC(=O)CNC(=O)[C@H](CO)NC(=O)[C@H](CC(=O)O)NC(=O)[C@H](Cc1c[nH]cn1)NC(=O)CC[C@@H](C)[C@H]1CC[C@H]2[C@@H]3[C@H](O)C[C@@H]4C[C@H](O)CC[C@]4(C)[C@H]3C[C@H](O)[C@]12C)C(C)C)C(=O)N[C@H](C(=O)N[C@@H](Cc1ccccc1)C(N)=O)C(C)C
B6: cholyl-Aβ6-20-amide (peptide)
peptide: Cholyl-HDSGYEVHHQKLVFF-NH2
SMILES: CC(C)C[C@H](NC(=O)[C@H](CCCCN)NC(=O)[C@H](CCC(N)=O)NC(=O)[C@H](Cc1c[nH]cn1)NC(=O)[C@H](Cc1c[nH]cn1)NC(=O)[C@@H](NC(=O)[C@H](CCC(=O)O)NC(=O)[C@H](Cc1ccc(O)cc1)NC(=O)CNC(=O)[C@H](CO)NC(=O)[C@H](CC(=O)O)NC(=O)[C@H](Cc1c[nH]cn1)NC(=O)CC[C@@H](C)[C@H]1CC[C@H]2[C@@H]3[C@H](O)C[C@@H]4C[C@H](O)CC[C@]4(C)[C@H]3C[C@H](O)[C@]12C)C(C)C)C(=O)N[C@H](C(=O)N[C@@H](Cc1ccccc1)C(=O)N[C@@H](Cc1ccccc1)C(N)=O)C(C)C
B7: cholyl-Aβ6-17-amide (peptide)
peptide: Cholyl-HDSGYEVHHQKL-NH2
SMILES: CC(C)C[C@H](NC(=O)[C@H](CCCCN)NC(=O)[C@H](CCC(N)=O)NC(=O)[C@H](Cc1c[nH]cn1)NC(=O)[C@H](Cc1c[nH]cn1)NC(=O)[C@@H](NC(=O)[C@H](CCC(=O)O)NC(=O)[C@H](Cc1ccc(O)cc1)NC(=O)CNC(=O)[C@H](CO)NC(=O)[C@H](CC(=O)O)NC(=O)[C@H](Cc1c[nH]cn1)NC(=O)CC[C@@H](C)[C@H]1CC[C@H]2[C@@H]3[C@H](O)C[C@@H]4C[C@H](O)CC[C@]4(C)[C@H]3C[C@H](O)[C@]12C)C(C)C)C(N)=O
B8: Cholyl-penta-alanine (peptide)
peptide: Cholyl-AAAAA-OH
SMILES: C[C@H](NC(=O)[C@H](C)NC(=O)[C@H](C)NC(=O)[C@H](C)NC(=O)[C@H](C)NC(=O)CC[C@@H](C)[C@H]1CC[C@H]2[C@@H]3[C@H](O)C[C@@H]4C[C@H](O)CC[C@]4(C)[C@H]3C[C@H](O)[C@]12C)C(=O)O
B9: cholyl-Aβ15-19 (peptide)
peptide: Cholyl-QKLVF-OH
SMILES: CC(C)C[C@H](NC(=O)[C@H](CCCCN)NC(=O)[C@H](CCC(N)=O)NC(=O)CC[C@@H](C)[C@H]1CC[C@H]2[C@@H]3[C@H](O)C[C@@H]4C[C@H](O)CC[C@]4(C)[C@H]3C[C@H](O)[C@]12C)C(=O)N[C@H](C(=O)N[C@@H](Cc1ccccc1)C(=O)O)C(C)C
B10: cholyl-Aβ17-21 (peptide)
peptide: Cholyl-LVFFA-OH
SMILES: CC(C)C[C@H](NC(=O)CC[C@@H](C)[C@H]1CC[C@H]2[C@@H]3[C@H](O)C[C@@H]4C[C@H](O)CC[C@]4(C)[C@H]3C[C@H](O)[C@]12C)C(=O)N[C@H](C(=O)N[C@@H](Cc1ccccc1)C(=O)N[C@@H](Cc1ccccc1)C(=O)N[C@@H](C)C(=O)O)C(C)C
B11: cholyl-Aβ16-20 (Phe19->Ala) (peptide)
peptide: Cholyl-KLVAF-OH
SMILES: CC(C)C[C@H](NC(=O)[C@H](CCCCN)NC(=O)CC[C@@H](C)[C@H]1CC[C@H]2[C@@H]3[C@H](O)C[C@@H]4C[C@H](O)CC[C@]4(C)[C@H]3C[C@H](O)[C@]12C)C(=O)N[C@H](C(=O)N[C@@H](C)C(=O)N[C@@H](Cc1ccccc1)C(=O)O)C(C)C

Target: natural β-amyloid peptide β-AP1-40 (human)
Experiment: cell-based or functional assay

| Binder | % Inhibition of Plateau; nucleation assay; 33 mole % [%] | Fold Increase in Lag Time; nucleation assay; 33 mole % [fold] | % Inhibition of Plateau; nucleation assay; 100 mole % [%] | Fold Increase in Lag Time; nucleation assay; 100 mole % [fold] | Fold Increase in Lag Time; nucleation assay; 38 mole % [fold] |
| --- | --- | --- | --- | --- | --- |
| B1 | 50 | 2.3 |  |  |  |
| B2 | 13 | 1.1 |  |  |  |
| Cholyl-DSGYEVHHQKLVFF [cholyl-Aβ7-20] | ~0 | 2 | 100 | > 4.5 |  |
| B3 | 29 | 1 |  |  |  |
| B4 | 49 | 2 |  |  |  |
| B5 | ~0 | 1.4 |  |  |  |
| B6 | ~0 | 1.8 |  |  |  |
| Cholyl-KLVFF-OH [cholyl-Aβ16-20] |  |  |  |  | 3.4 |
| Cholyl-HHQKLVFF [cholyl-Aβ13-20] | ~0 | 2.6 |  |  |  |
| B7 | ~0 | 1.8 |  |  |  |

Target: natural β-amyloid peptide β-AP1-40 (human)
Experiment: cell-based or functional assay
Remark: another data set of the same source

| Binder | % Inhibition of Plateau; nucleation assay; 10 mole % [%] | % Inhibition of Plateau; nucleation assay; 100 mole % [%] | Fold Increase in Lag Time; nucleation assay; 10 mole % [fold] | Fold Increase in Lag Time; nucleation assay; 33 mole % [fold] | Fold Increase in Lag Time; nucleation assay; 100 mole % [fold] |
| --- | --- | --- | --- | --- | --- |
| B1 | ~0 | 100 | 2.1 | 2.6 | > 5 |
| iminobiotinyl-KLVFF-OH [iminobiotinyl-Aβ16-20] |  | 86 |  |  | 1.3 |
| B8 |  | ~0 |  |  | ~1 |
| B9 | ~0 | ~0 | 1.6 |  | 3.1 |
| B10 |  | 100 |  |  | > 5 |
| Cholyl-KLTFF [cholyl-Aβ16-20 (Val18->Thr)] |  | ~0 |  |  | ~1 |
| Cholyl-KLVFF-NH2 [cholyl-Aβ16-20-amide] | ~0 |  | 2.7 | 5.6 |  |
| H-KLVFF-OH [unmodified Aβ16-20] |  | ~0 |  |  | ~1 |
| B11 |  | 73 |  |  | 2.6 |
| Cholyl-KLVFF-OH [cholyl-Aβ16-20] | 40 | 100 | 2.4 |  | > 5 |
| Cholyl-HHQKLVFF [cholyl-Aβ13-20] | 57 |  | 2.2 |  |  |

Target: natural β-amyloid peptide β-AP1-40 (human)
Experiment: cell-based or functional assay
Remark: another data set of the same source
Target sequence in this assay (peptide, as listed by the source): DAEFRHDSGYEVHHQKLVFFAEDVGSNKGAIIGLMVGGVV

| Binder | % Iext'n; seeded extension assay; 25 mole % [%] | % Inucl'n; nucleation assay; 100 mole % [%] | ΔLag; nucleation assay; 100 mole % [ratio] | % Inucl'n; nucleation assay; 33 mole % [%] | ΔLag; nucleation assay; 33 mole % [ratio] |
| --- | --- | --- | --- | --- | --- |
| B1 | 56 | 100 | > 5 |  |  |
| B2 |  | -18 | 1.1 |  |  |
| iminobiotinyl-KLVFF-OH [iminobiotinyl-Aβ16-20] | 0 | 86 | 1.3 |  |  |
| B8 | 0 | -7 | 0.8 |  |  |
| B9 |  | -23 | 3.1 |  |  |
| B10 | 91 | 100 | > 5 |  |  |
| Cholyl-KLTFF [cholyl-Aβ16-20 (Val18->Thr)] | 44 | -16 | 1.1 |  |  |
| Cholyl-KLVFF-NH2 [cholyl-Aβ16-20-amide] | 52 | 70 | 5.4 |  |  |
| B4 |  |  |  | 70 | 2 |
| H-KLVFF-OH [unmodified Aβ16-20] | 8 | 0 | 1.1 |  |  |
| B11 | 31 | 73 | 2.6 |  |  |
| Cholyl-KLVFF-OH [cholyl-Aβ16-20] | 11 | 72 | 1.8 |  |  |
